In patent US20150203577A1 (Chugai, published 2015):
Positions count from the first letter of the chain named.

T1: mouse FcγRII (mouse, UniProt P08101 30-210)
T1 construct: also called mFcγRII; mFcgRII
T1 sequence: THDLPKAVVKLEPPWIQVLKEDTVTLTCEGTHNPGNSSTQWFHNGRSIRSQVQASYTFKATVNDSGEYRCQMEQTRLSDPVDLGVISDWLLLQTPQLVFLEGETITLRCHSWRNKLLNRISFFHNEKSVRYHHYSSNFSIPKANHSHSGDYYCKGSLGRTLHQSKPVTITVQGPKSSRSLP

T2: mouse FcγRIII (mouse, UniProt P08508 31-215)
T2 construct: also called mFcγRIII; mFcgRIII
T2 chain: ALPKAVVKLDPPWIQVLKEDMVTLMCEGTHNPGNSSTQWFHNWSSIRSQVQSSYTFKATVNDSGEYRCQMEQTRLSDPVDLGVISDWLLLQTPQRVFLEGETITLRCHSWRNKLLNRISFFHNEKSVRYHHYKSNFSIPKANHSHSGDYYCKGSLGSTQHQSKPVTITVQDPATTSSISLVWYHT

T3: mouse FcγRII extracellular domain, C-terminally His-tagged (mouse, UniProt P08101 30-210)
T3 construct: the whole entry is named; also called mFcγRII; mFcgRII
T3 sequence: T1 sequence

T4: mouse FcγRIII extracellular domain, C-terminally His-tagged (mouse, UniProt P08508 31-215)
T4 construct: the whole entry is named; also called mFcγRIII; mFcgRIII
T4 chain: T2 chain

B1: H237-MB290/MRAL-k0 (antibody, mouse IgG1, kappa)
heavy: QVQLQESGPGLVKPSETLSLTCAVSGHSISHDHAWSWVRQPPGEGLEWIGFISYSGITNYNPSLQGRVTISRDNSKNTLYLQMNSLRAEDTAVYYCARSLARTTAMDYWGEGTLVTVSSAKTTPPSVYPLAPGSAAQTNSMVTLGCLVKGYFPEPVTVTWNSGSLSSGVHTFPAVLQSDLYTLSSSVTVPSSTWPSETVTCNVAHPASSTKVDKKIVPRDCGCKPCICTAPEVSDVFIFPPKPKDVLTITLTPKVTCVVVDISKDDPEVQFSWFVDDVEVHTAQTQPREEQFNSTFRSVSELPIMHQDWLNGKEFKCRVNSAAFPAPIEKTISKTKGRPKAPQVYTIPPPKEQMAKDKVSLTCMITDFFPEDITVEWQWNGQPAENYKNTQPIMDTDGSYFVYSKLNVQKSNWEAGNTFTCSVLHEGLHNHHTEKSLSHSPGK
light: not shown
notes: copies: 2 + 2
B2: H237-MB302/MRAL-k0 (antibody, mouse IgG1, kappa)
heavy: B1 heavy with T229E, A230V, S234E
light: not shown
notes: copies: 2 + 2
B3: H237-MB305/MRAL-k0 (antibody, mouse IgG1, kappa)
heavy: B1 heavy with P231E
light: not shown
notes: copies: 2 + 2
B4: H237-MB490/MRAL-k0 (antibody, mouse IgG1, kappa)
heavy: B1 heavy with T229E, A230P, P231N, S234E, S294L
light: not shown
notes: copies: 2 + 2
B5: H237-MB465/MRAL-k0 (antibody, mouse IgG1, kappa)
heavy: B1 heavy with T229E, A230T, P231Y, S234E, Q291L
light: not shown
notes: copies: 2 + 2
B6: H237-MB466/MRAL-k0 (antibody, mouse IgG1, kappa)
heavy: B1 heavy with T229E, A230T, P231Y, S234E, A322D
light: not shown
notes: copies: 2 + 2
B7: H237-MB492/MRAL-k0 (antibody, mouse IgG1, kappa)
heavy: B1 heavy with T229E, A230P, P231N, S234E, N320D
light: not shown
notes: copies: 2 + 2
B8: H237-MB496/MRAL-k0 (antibody, mouse IgG1, kappa)
heavy: B1 heavy with T229E, A230P, P231N, S234E, S294M, K330R
light: not shown
notes: copies: 2 + 2
B9: H237-MB495/MRAL-k0 (antibody, mouse IgG1, kappa)
heavy: B1 heavy with T229E, A230P, P231N, S234E, S294M, N320D
light: not shown
notes: copies: 2 + 2
B10: H237-MB491/MRAL-k0 (antibody, mouse IgG1, kappa)
heavy: B1 heavy with T229E, A230P, P231N, S234E, S294M
light: not shown
notes: copies: 2 + 2
B11: H237-MB493/MRAL-k0 (antibody, mouse IgG1, kappa)
heavy: B1 heavy with T229E, A230P, P231N, S234E, S294L, N320D
light: not shown
notes: copies: 2 + 2
B12: H237-MB477/MRAL-k0 (antibody, mouse IgG1, kappa)
heavy: B1 heavy with T229E, A230P, P231N, S234E, S263A
light: not shown
notes: copies: 2 + 2
B13: H237-MB499/MRAL-k0 (antibody, mouse IgG1, kappa)
heavy: B1 heavy with T229E, A230P, P231N, S234E, S294M, N320D, K330R
light: not shown
notes: copies: 2 + 2
B14: H237-MB478/MRAL-k0 (antibody, mouse IgG1, kappa)
heavy: B1 heavy with T229E, A230P, P231N, S234E, Q291L
light: not shown
notes: copies: 2 + 2
B15: H237-MB498/MRAL-k0 (antibody, mouse IgG1, kappa)
heavy: B1 heavy with T229E, A230P, P231N, S234E, S294L, N320D, K330R
light: not shown
notes: copies: 2 + 2
B16: H237-MB494/MRAL-k0 (antibody, mouse IgG1, kappa)
heavy: B1 heavy with T229E, A230P, P231N, S234E, S294L, K330R
light: not shown
notes: copies: 2 + 2
B17: H237-MB463/MRAL-k0 (antibody, mouse IgG1, kappa)
heavy: B1 heavy with T229E, A230T, P231Y, S234E, S333W
light: not shown
notes: copies: 2 + 2
B18: H237-MB480/MRAL-k0 (antibody, mouse IgG1, kappa)
heavy: B1 heavy with T229E, A230P, P231N, S234E, K330R
light: not shown
notes: copies: 2 + 2
B19: H237-MB497/MRAL-k0 (antibody, mouse IgG1, kappa)
heavy: B1 heavy with T229E, A230P, P231N, S234E, N320D, K330R
light: not shown
notes: copies: 2 + 2
B20: H237-MB462/MRAL-k0 (antibody, mouse IgG1, kappa)
heavy: B1 heavy with T229E, A230T, P231Y, S234E, S333K
light: not shown
notes: copies: 2 + 2
B21: H237-MB479/MRAL-k0 (antibody, mouse IgG1, kappa)
heavy: B1 heavy with T229E, A230P, P231N, S234E, A322D
light: not shown
notes: copies: 2 + 2
B22: H237-MB467/MRAL-k0 (antibody, mouse IgG1, kappa)
heavy: B1 heavy with T229E, A230T, P231Y, S234E, A323G
light: not shown
notes: copies: 2 + 2
B23: H237-MB464/MRAL-k0 (antibody, mouse IgG1, kappa)
heavy: B1 heavy with T229E, A230T, P231Y, S234E, S263A
light: not shown
notes: copies: 2 + 2

The binders below were run against T1, mouse FcγRII (assay: SPR Biacore T200, KD ratio).
Source text: (§1) The antibody H chain variable region used was the variable region H237 (SEQ ID NO: 1) of the H chain VH3-IgG1 of the anti-IL-6 receptor antibody Fv4-IgG1 described in WO2009/125825. The antibody L chain commonly used was the L chain MRAL-k0 (SEQ ID NO: 2) of the anti-IL-6 receptor antibody tocilizumab. […] The resulting variant group was designated as MB110 variants. These variants were expressed and purified by the method of Reference Example 1 and evaluated for their binding to mFcγRII and mFcγRIII by the method of Reference Example 2 using Biacore T200.
(§2) Each altered antibody was analyzed for its interaction with each Fcγ receptor prepared above using Biacore T100 (GE Healthcare Japan Corp.), Biacore T200 (GE Healthcare Japan Corp.), Biacore A100, or Biacore 4000. The running buffer used was HBS-EP+ (GE Healthcare Japan Corp.). The assay temperature was set to 25° C. The sensor chips used were chips prepared by immobilizing Protein L (ACTIGEN or BioVision) onto Series S Sensor Chip CM5 (GE Healthcare Japan Corp.) or Series S Sensor Chip CM4 (GE Healthcare Japan Corp.) by the amine coupling method.
(§3) In order to calculate the KD value of each altered antibody for FcγR, kinetic analysis was conducted according to the following method: first, the antibody of interest was captured onto any of these chips and allowed to interact with mFcγR diluted with a running buffer. For the obtained sensorgram, the assay results were globally fit into the 1:1 Langmuir binding model using Biacore Evaluation Software to calculate an association rate constant ka (L/mol/s) and a dissociation rate constant kd (1/s). From these values, the dissociation constant KD (mol/L) was calculated.

Row | Relative mFcγRII-binding activity (MB110 = 1) | relative mFcγRII-binding activity (mIgG1 = 1) | Binder
1 | 2.16 fold | 26.5 fold | B1
2 | 4.37 fold | 53.7 fold | B2
3 | 2.12 fold | 26 fold | B3

Molecular target: T2, mouse FcγRIII
Experiment: SPR Biacore T200, KD ratio
Source text: as §1, §2, §3

Row | Relative mFcγRIII-binding activity (MB110 = 1) | relative mFcγRIII-binding activity (mIgG1 = 1) | Binder
4 | 1.37 fold | 5.5 fold | B1
5 | 1.11 fold | 4.5 fold | B2
6 | 0.94 fold | 3.8 fold | B3

These binders were tested against T3, mouse FcγRII extracellular domain, … (assay: SPR Biacore T200, KD ratio).
Source text: as §1, with “groups were” for “group was”, “MB397 variants and MB390 variants, respectively.” for “MB110 variants.”
as §2, §3

Row | relative mFcγRII-binding activity (MB390 = 1) | relative mFcγRII-binding activity (mIgG1 = 1) | relative mFcγRII-binding activity (MB397 = 1) | Binder
7 | 2.16 fold | 1130 fold |  | B4
8 |  | 192 fold | 0.35 fold | B5
9 |  | 449 fold | 0.81 fold | B6
10 | 1.19 fold | 622 fold |  | B7
11 | 1.7 fold | 884 fold |  | B8
12 | 1.2 fold | 623 fold |  | B9
13 | 0.92 fold | 478 fold |  | B10
14 | 2.73 fold | 1420 fold |  | B11
15 | 0.38 fold | 196 fold |  | B12
16 | 1.9 fold | 992 fold |  | B13
17 | 0.49 fold | 254 fold |  | B14
18 | 6.4 fold | 3340 fold |  | B15
19 | 4.05 fold | 2110 fold |  | B16
20 |  | 307 fold | 0.55 fold | B17
21 | 0.98 fold | 511 fold |  | B18
22 | 1.48 fold | 773 fold |  | B19
23 |  | 214 fold | 0.39 fold | B20
24 | 1.41 fold | 734 fold |  | B21
25 |  | 271 fold | 0.49 fold | B22
26 |  | 88.5 fold | 0.16 fold | B23

Molecular target: T4, mouse FcγRIII extracellular domain, …
Experiment: SPR Biacore T200, KD ratio
Source text: as §1, with “groups were” for “group was”, “MB397 variants and MB390 variants, respectively.” for “MB110 variants.”
as §2, §3

Row | relative mFcγRIII-binding activity (MB390 = 1) | relative mFcγRIII-binding activity (mIgG1 = 1) | relative mFcγRIII-binding activity (MB397 = 1) | Binder
27 | 2.9 fold | 34.6 fold |  | B4
28 |  | 15 fold | 0.77 fold | B5
29 |  | 32 fold | 1.66 fold | B6
30 | 0.92 fold | 10.9 fold |  | B7
31 | 1.71 fold | 20.3 fold |  | B8
32 | 1.45 fold | 17.2 fold |  | B9
33 | 1.05 fold | 12.4 fold |  | B10
34 | 3.77 fold | 44.9 fold |  | B11
35 | 0.25 fold | 3 fold |  | B12
36 | 2.03 fold | 24.2 fold |  | B13
37 | 0.39 fold | 4.7 fold |  | B14
38 | 7.15 fold | 85.1 fold |  | B15
39 | 4.99 fold | 59.4 fold |  | B16
40 |  | 21.6 fold | 1.12 fold | B17
41 | 0.85 fold | 10.2 fold |  | B18
42 | 1.32 fold | 15.7 fold |  | B19
43 |  | 15.1 fold | 0.78 fold | B20
44 | 1.16 fold | 13.8 fold |  | B21
45 |  | 19.2 fold | 0.99 fold | B22
46 |  | 7.6 fold | 0.39 fold | B23
